Experimental data published in patent US20200283523A1 (WUXI BIOLOGICS IRELAND, published 2020).

Experiments:
human CD19 [1] = molecular target: T1, human CD19 (human, UniProt P15391 20-556); test: cell-based or functional assay
T1 sequence (looked up): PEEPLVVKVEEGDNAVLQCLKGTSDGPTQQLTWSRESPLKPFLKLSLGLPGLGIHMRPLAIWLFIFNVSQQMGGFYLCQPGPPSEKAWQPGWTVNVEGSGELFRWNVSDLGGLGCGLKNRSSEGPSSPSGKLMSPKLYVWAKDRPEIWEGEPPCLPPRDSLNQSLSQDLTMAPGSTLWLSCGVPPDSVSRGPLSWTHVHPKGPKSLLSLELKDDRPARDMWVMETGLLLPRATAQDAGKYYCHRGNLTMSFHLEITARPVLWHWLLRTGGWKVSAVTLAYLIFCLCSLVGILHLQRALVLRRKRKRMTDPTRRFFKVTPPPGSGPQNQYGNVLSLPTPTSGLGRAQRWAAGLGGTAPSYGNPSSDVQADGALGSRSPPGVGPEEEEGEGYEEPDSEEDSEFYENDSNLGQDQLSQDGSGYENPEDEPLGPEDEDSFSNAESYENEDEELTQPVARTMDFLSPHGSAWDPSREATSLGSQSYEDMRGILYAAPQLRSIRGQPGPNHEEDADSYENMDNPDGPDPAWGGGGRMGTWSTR

human CD19 [2] = molecular target: T1, human CD19; test: flow cytometry on Ramos cells
human CD3 = molecular target: T2, human CD3 (human, UniProt P07766 23-207); test: flow cytometry on Jurkat cells
T2 construct: whole, on cells; On cells CD3 stands as the full CD3/TCR complex; also called CD3 on Jurkat cells
T2 sequence (P07766 23-207): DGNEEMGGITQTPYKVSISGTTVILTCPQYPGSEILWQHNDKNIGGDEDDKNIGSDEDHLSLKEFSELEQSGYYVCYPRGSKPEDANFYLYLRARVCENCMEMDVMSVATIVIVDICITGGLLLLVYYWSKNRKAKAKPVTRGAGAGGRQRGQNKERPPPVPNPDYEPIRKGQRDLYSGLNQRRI

B1: W3438-T3U4.F16-1.uIgG4.SP (bispecific antibody)
light 1: DIVMTQSPDSLAVSLGERATINCKSSQSLLNSRTRKNYLAWYQQKPGQPPKLLIYWASTRQSGVPDRFSGSGSGTDFTLTISSLQAEDVAVYYCTQSHTLRTFGGGTKVEIKPDIQNPDPAVYQLRDSKSSDKSVCLFTDFDSQTQVSQSKDSDVYITDKCVLDMRSMDFKSNSAVAWSQKSDFACANAFQNSIIPEDTFFPSPESS
heavy 1: QVQLVQSGAEVKKPGSSVKVSCKASGFAFTDYYIHWVRQAPGQGLEWMGWISPGNVNTKYNENFKGRVTITADKSTSTAYMELSSLRSEDTAVYYCARDGYSLYYFDYWGQGTLVTVLEDLKNVFPPEVAVFEPSEAEISHTQKATLVCLATGFYPDHVELSWWVNGKEVHSGVCTDPQPLKEQPALQDSRYALSSRLRVSATFWQNPRNHFRCQVQFYGLSENDEWTQDRAKPVTQIVSAEAWGRYGPPCPPCPAPEFLGGPSVFLFPPKPKDTLMISRTPEVTCVVVDVSQEDPEVQFNWYVDGVEVHNAKTKPREEQFNSTYRVVSVLTVLHQDWLNGKEYKCKVSNKGLPSSIEKTISKAKGQPREPQVYTLPPCQEEMTKNQVSLWCLVKGFYPSDIAVEWESNGQPENNYKTTPPVLDSDGSFFLYSRLTVDKSRWQEGNVFSCSVMHEALHNHYTQKSLSLSLGK
light 2: DIQLTQSPSFLSASVGDRVTITCSASSTVNYMHWYQQKPGKAPKLLIYSTSNLASGVPSRFSGSGSGTEFTLTISSLQPEDFATYYCHQWSSYPYTFGQGTKLEIKRTVAAPSVFIFPPSDEQLKSGTASVVCLLNNFYPREAKVQWKVDNALQSGNSQESVTEQDSKDSTYSLSSTLTLSKADYEKHKVYACEVTHQGLSSPVTKSFNRGEC
heavy 2: QMQLVQSGPEVKKPGTSVKVSCKASGYAFTSYNMYWVRQARGQRLEWIGYIDPYNGDTTYNQKFKGRVTITRDMSTSTAYMELSSLRSEDTAVYYCLTTAYAMDYWGQGTLVTVSSASTKGPSVFPLAPCSRSTSESTAALGCLVKDYFPEPVTVSWNSGALTSGVHTFPAVLQSSGLYSLSSVVTVPSSSLGTKTYTCNVDHKPSNTKVDKRVGGGGSGGGGSQMQLVQSGPEVKKPGTSVKVSCKASGYAFTSYNMYWVRQARGQRLEWIGYIDPYNGDTTYNQKFKGRVTITRDMSTSTAYMELSSLRSEDTAVYYCLTTAYAMDYWGQGTLVTVSSASTKGPSVFPLAPCSRSTSESTAALGCLVKDYFPEPVTVSWNSGALTSGVHTFPAVLQSSGLYSLSSVVTVPSSSLGTKTYTCNVDHKPSNTKVDKRVESKYGPPCPPCPAPEFLGGPSVFLFPPKPKDTLMISRTPEVTCVVVDVSQEDPEVQFNWYVDGVEVHNAKTKPREEQFNSTYRVVSVLTVLHQDWLNGKEYKCKVSNKGLPSSIEKTISKAKGQPREPQVCTLPPSQEEMTKNQVSLSCAVKGFYPSDIAVEWESNGQPENNYKTTPPVLDSDGSFFLVSRLTVDKSRWQEGNVFSCSVMHEALHNHYTQKSLSLSLGK
notes: also called WuXiBody
Q: What does the source list for B1?
A: cytotoxic activity on Raji cells with CD8+ T cells, EC50 (human CD19 [1]): 3.2 nM; EC50 (human CD19 [2]): 1.8 nM; EC50 (human CD3): 19.3 nM
